1 molecule from patent US20190004052A1 (published 2019) can be followed below.

Non-standard residues stand in square brackets, D forms with d. No end group written: not given here. pS = N[C@@H](COP(=O)(O)O)C(=O)O

The assay deals with T1, Phosphopeptide TF1-Pser258 CKEN(pS)PLNVS (human).
T1 construct: Synthetic phosphopeptide
T1 peptide: CKEN[pS]PLNVS
Nature of the assay: peptide ELISA, optical density (FIG. 7).

B1: hybrid IgG2b anti-TF2-Pser253 monoclonal antibody MAb 680 (antibody, V domains shown)
VH: DVQLQESGPGLVKPSQSLSLTCTVTGYSITSDYAWNWIRQFPGNKLEWMGYISYSGSTSYNPSLKSRISITRDTSKNQFFLQLNSVTTEDTATYYCARIRGYLAMDYWGQGTSVTVSS
VL: DIVMTQAAFSNPVTLGTSASISCRSSKSLLHSNGITYLYWYLQKPGQSPQLLIYQMSNLASGVPDRFSSSGSGTDFTLRISRVEAEDVGVYYCAQNLELPPTFGGGTKLEIKR
notes: The Fab portion of IgM clone 4A6-4B5-1E2 was fused onto murine IgG2b light and heavy chains and made in HEK cells; also called M680; hybrid IgG anti-TF2-pser253 M680
In the case of B1, the binding result is recorded as “no binding”.
